From the supplement of paper PMC9170038

Test system: MS2 coat protein
Assay: apparent KD of MS2 coat protein; designed switch direction (-1 OFF switch, 1 ON switch): 1; higher = weaker reporter binding
Method in brief: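 SNAP-549-labelled MS2 coat protein was titrated, doubling from 0.7 or 1.5 nM to 3 µM, over designed RNA switches transcribed on Illumina chips by stalled E. coli RNA polymerase. Runs were done without input, with 200 uM small-molecule ligand, or with an oligonucleotide input. Apparent KD is the per-design median over clusters of curve-fitted normalised fluorescence.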

[1] = input ligand: microRNA oligo, concentration not stated
[2] = Eterna round: R95, input ligand: FMN 200 uM
[3] = Eterna round: R95, input ligand: microRNA oligo, concentration not stated
[4] = Eterna round: R95, input ligand: none

AUACAUGAGGAUCACCCAUGUAAUUAAUUAAUUAAUAAGAUCUAGGAUAUCAGCUCGAUUAGAGCUGAGAAGGAGAUCACAUGU [SSNG3/21-B2] (Eterna round: R96, puzzle: Same State NG 3)
apparent KD of MS2 coat protein [1]: 16.8 nM

GAAGAACAUGAGGAUCACCCAUGUAAGCGGAAGCUAGGAUAUGCGGGAAAGAAGAGAGAAGCAGAAGGAGUAGGAA [JR_SS1_Sub029] (puzzle: Same State 1)
apparent KD of MS2 coat protein [2]: 29.6 nM | apparent KD of MS2 coat protein [3]: 34.4 nM | apparent KD of MS2 coat protein [4]: 48.8 nM

ACGCAGCUGGGCUAGGAUAUCGGUGGUAAAACAUGAGGAUCACCCAUGUCCGAAGCUCGGACUUCCGAGAAGGAGCCCGGCUGCG [Soinraesar Omei Mod 9] (puzzle: Same State 2)
apparent KD of MS2 coat protein [2]: 34.1 nM | apparent KD of MS2 coat protein [3]: 253 nM | apparent KD of MS2 coat protein [4]: 481 nM

AUACAGGAGCCACAUGAGGAUCACCCAUGUGACACGCAAAUGAAGGAUAUCCGACUCCAGACGAGGGAGAAGGUCACGGCGGGC [Eternabot solution 13] (Eterna round: R96, puzzle: Same State NG 3)
apparent KD of MS2 coat protein (input ligand: FMN 200 uM): 16.6 nM | apparent KD of MS2 coat protein [1]: 11.5 nM | apparent KD of MS2 coat protein (input ligand: none): 20.1 nM

CUCAAAACAAGCUGCAGUGUUCGUCUUUCACAUGAGGAUCACCCAUGUAGUAGCCCAGUGGAAGCGCUCGGGCCACC [Eronrace] (puzzle: Sensor for hsa-mir-208a)
apparent KD of MS2 coat protein [2]: 55 nM | apparent KD of MS2 coat protein [3]: 24.9 nM | apparent KD of MS2 coat protein [4]: 54.1 nM

GUGGUCAGACAUGAGGAUCACCCAUGUGGAAUAAAUAAGGAGAAGGAUAUGGAAUAUAGGAUAUACCAGAAGGUCUGGUUGGUG (Eterna round: R96, puzzle: Same State NG 3)
apparent KD of MS2 coat protein [1]: 55.8 nM

CCAUAACGGUGAGGAUAUUGUUGCGAUAAGUGACGAGAAGGCAUUCAUGUGAAAUAAACAUACAUGAGGAUCACCCAUGUUGUA [Omei SS(NG)1 Bv3] (Eterna round: R96, puzzle: Same State NG 1)
apparent KD of MS2 coat protein (input ligand: FMN 200 uM): 22.6 nM | apparent KD of MS2 coat protein [1]: 40.8 nM | apparent KD of MS2 coat protein (input ligand: none): 50.2 nM

UGUUGUAUUACAGGAUAUCUAUUAGUUUAAUUUAGAGAAGGGUAUUCACAUGAGGAUCACCCAUGUAUAUACGAGGAAGUUGUG [JMF's solution 93] (Eterna round: R96, puzzle: Same State NG 1)
apparent KD of MS2 coat protein [1]: 39.5 nM

UCGGGCUCUGCUCGUCUUGAGUUGCUCCCACAUGAGGAUCACCCAUGUAGUGUGCCGAUCGGCGCGCGGGUGACUUU [Atresoso] (puzzle: Sensor for hsa-mir-208a)
apparent KD of MS2 coat protein [2]: 456 nM | apparent KD of MS2 coat protein [3]: 151 nM | apparent KD of MS2 coat protein [4]: 451 nM

UGGCUGAGUCGAGGAUAUGAUCUUCAUAUAAUAACAUGAGGAUCACCCAUGUAUAAUUACAUGGAUCAGAAGGCGACUCAGCCA [SSNG2/13-B2] (Eterna round: R96, puzzle: Same State NG 2)
apparent KD of MS2 coat protein [1]: 362 nM

GUGGUCAGACAUGAGGAUCACCCAUGUGGAAUAAAUAAGGAGAAGGAUAUGUAAUAUAGGAUAUAACAGAAGGUUUGGUUGGUG (Eterna round: R96, puzzle: Same State NG 3)
apparent KD of MS2 coat protein (input ligand: FMN 200 uM): 105 nM | apparent KD of MS2 coat protein [1]: 69.7 nM | apparent KD of MS2 coat protein (input ligand: none): 96.5 nM

AGAUGUUAAUCAGGAUAUGGGCACAUGAGGAUCACCCAUGUAAAGUAGAUACUAUGUGGUCAAGUCUAGAAGGGAUGGCUAACA [SameState NG2 #80] (Eterna round: R96, puzzle: Same State NG 2)
apparent KD of MS2 coat protein (input ligand: FMN 200 uM): 433 nM | apparent KD of MS2 coat protein [1]: 282 nM | apparent KD of MS2 coat protein (input ligand: none): 279 nM

GUAGCAUACCGAGGAUAUUCAUAUACAUGAGGAUCACCCAUGUUUAUAGGUCGAUUACGACCUUGGGAGAAGGCGGAAUGCUAC [Xeonanis - 20 Mod31] (Eterna round: R96, puzzle: Same State NG 2)
apparent KD of MS2 coat protein (input ligand: FMN 200 uM): 10.8 nM | apparent KD of MS2 coat protein [1]: 9.68 nM | apparent KD of MS2 coat protein (input ligand: none): 13.9 nM

AAUUUAAUACAUGAGGAUCACCCAUGUAAUACUAGUAAGAUCUAGGAUAUCAGCUCGAAUAGAGCUGAGAAGGAGAUCACAUGU [SSNG3/19-C1] (Eterna round: R96, puzzle: Same State NG 3)
apparent KD of MS2 coat protein (input ligand: FMN 200 uM): 24.2 nM | apparent KD of MS2 coat protein [1]: 63.9 nM | apparent KD of MS2 coat protein (input ligand: none): 82 nM
